According to patent US9138474B2, “Composition comprising expression or activity inhibitors of Ninjurin1 for the prevention and treatment of inflammatory disease” (SNU R&DB FOUNDATION, priority 2008, dated 2015):

Legend:
Wnt7b expression = Wnt7b expression (RT-PCR) in BV2 cells expressing Myc-Ninjurin1 treated with p38 inhibitor; assay type: cell-based, rodent; conditions: 0, 10, 30 uM, 24 hours
Experimental: Primary cultured human microvascular pericytes (Applied Cell Biology Research Institute) were cultured in Dulbecco's modified Eagle's medium (DMEM); Raw 264.7 cells (TIB-71™) and BV2 cells were cultured in DMEM; and HUVEC cells were cultured in M199 supplemented with 20% FBS (Invitrogen, Grand Island, N.Y.). Those cells were cultured at 37° C. in humid air composed of […] and 5% CO2. Raw cells and BV2 cells were transformed by using Lipofectamine Plus Reagent (Invitrogen). Cell lysate was prepared by using lysis buffer (40 mM Tris-Cl pH 8.4, 10 mM EDTA, 120 mM NaCl, 0.1% NP-40). To prepare culture solution to treat human microvascular pericytes, transformed macrophages were cultured in serum (FBS)-free DMEM for 24 hours, which were then filtered with 0.22 […] filter paper (Millipore), followed by 10 fold concentration using centrifugation filtering tube (Millipore). For the chemical treatment, cells were cultured at the density of 60-70% and then treated with Ang1 and Ang2 (500-1000 ng/ml) independently or together in serum free condition for 14-16 hours. To understand signal transduction pathway, cells were transformed with Mock or Ninjurin1 cDNA. Serum was depleted for 14-16 hours and then the cells were treated with SB203580 (Sigma), the p38 inhibitor, for 24 hours. […]

[1] = tested on: rodent originated macrophages (Raw264.7, BV2); assay: Wnt7b and Ninjurin1 quantified by RT-PCR in macrophages in the presence of rh-Ang1 or rh-Ang2; assay type: cell-based; conditions: 0, 1 and 2.5 ug/ml
Experimental: Primary cultured human microvascular pericytes (Applied Cell Biology Research Institute) were cultured in Dulbecco's modified Eagle's medium (DMEM); Raw 264.7 cells (TIB-71™) and BV2 cells were cultured in DMEM; and HUVEC cells were cultured in M199 supplemented with 20% FBS (Invitrogen, Grand Island, N.Y.). Those cells were cultured at 37° C. in humid air composed of […] and 5% CO2. Raw cells and BV2 cells were transformed by using Lipofectamine Plus Reagent (Invitrogen). Cell lysate was prepared by using lysis buffer (40 mM Tris-Cl pH 8.4, 10 mM EDTA, 120 mM NaCl, 0.1% NP-40). To prepare culture solution to treat human microvascular pericytes, transformed macrophages were cultured in serum (FBS)-free DMEM for 24 hours, which were then filtered with 0.22 […] filter paper (Millipore), followed by 10 fold concentration using centrifugation filtering tube (Millipore). For the chemical treatment, cells were cultured at the density of 60-70% and then treated with Ang1 and Ang2 (500-1000 ng/ml) independently or together in serum free condition for 14-16 hours. To understand signal transduction pathway, cells were transformed with Mock or Ninjurin1 cDNA. Serum was depleted for 14-16 hours and then the cells were treated with SB203580 (Sigma), the p38 inhibitor, for 24 hours.
Particularly, RT-PCR and real time PCR were performed as follows: Transformed BV2 cells were cultured in DMEM supplemented with 1% serum for 2 days, and then RNA was extracted by using Trizol reagent (Invitrogen). Following primers were used for RT-PCR: Gapdh: forward primer 5′-[…]-3′ (SEQ. ID. NO: 4), reverse primer 5′-[…]-3′ (SEQ. ID. NO: 5); Ninjurin1: forward primer 5′-GAGTCGGGCACTGAGGA-3′ (SEQ. ID. NO: 6), reverse primer: 5′-GTTGCAGGGGTCTGGTCA-3′ (SEQ. ID. NO: 7); Ang1: forward primer 5′-[…]-3′ (SEQ. ID. NO: 8), reverse primer: 5′-[…]-3′ (SEQ. ID. NO: 9); Ang2: forward primer 5′-[…]-3′ (SEQ. ID. NO: 10), reverse primer: 5′-[…]-3′ (SEQ. ID. NO: 11); Wnt7b: forward primer 5′-[…]-3′ (SEQ. ID. NO: 12), reverse primer: 5′-[…]-3′ (SEQ. ID. NO: 13); Wnt7b: 2nd round forward primer 5′-[…]-3′ (SEQ. ID. NO: 14), reverse primer: 5′-[…]-3′ (SEQ. ID. NO: 15). The PCR products were separated on 1.2% agarose gel containing EtBr (ethidium bromide), followed by analysis by digital imaging. Primers used for real-time PCR were as follows: Ang2: forward primer 5′-[…]-3′ (SEQ. ID. NO: 16), reverse primer: 5′-[…]-3′ (SEQ. ID. NO: 17); Gapdh, Ang1 and Wnt7: same primers as used for RT-PCR were used. […]
To investigate interaction among Wnt7b, Ninjurin1, Ang1 and Ang2, Wnt7b and Ninjurin1 were quantified by RT-PCR in the presence of recombinant human Ang1 (rh-Ang1) and rh-Ang2 at different concentrations (0, 1 and 2.5 ug/ml) in rodent originated macrophages (Raw264.7, BV2).

C[S+]([O-])c1ccc(-c2nc(-c3ccncc3)c(-c3ccc(F)cc3)[nH]2)cc1 (centres unmarked) [p38 inhibitor, SB203580]
Wnt7b expression stimulated by Ninjurin1 (Wnt7b expression): reduced

B1: rh-Ang2: recombinant human Ang2 (angiopoietin-2), R&D Systems (protein, UniProt O15123 19-496, looked up)
Angiopoietin-2: YNNFRKSMDSIGKKQYQVQHGSCSYTFLLPEMDNCRSSSSPYVSNAVQRDAPLEYDDSVQRLQVLENIMENNTQWLMKLENYIQDNMKKEMVEIQQNAVQNQTAVMIEIGTNLLNQTAEQTRKLTDVEAQVLNQTTRLELQLLEHSLSTNKLEKQILDQTSEINKLQDKNSFLEKKVLAMEDKHIIQLQSIKEEKDQLQVLVSKQNSIIEELEKKIVTATVNNSVLQKQQHDLMETVNNLLTMMSTSNSAKDPTVAKEEQISFRDCAEVFKSGHTTNGIYTLTFPNSTEEIKAYCDMEAGGGGWTIIQRREDGSVDFQRTWKEYKVGFGNPSGEYWLGNEFVSQLTNQQRYVLKIHLKDWEGNEAYSLYEHFYLSSEELNYRIHLKGLTGTAGKISSISQPGNDFSTKDGDNDKCICKCSQMLTGGWWFDACGPSNLNGMYYPQRQNTNKFNGIKWYYWKGSGYSLKATTMMIRPADF
Ninjurin1 expression [1]: increased | Wnt7b expression [1]: increased

B2: rh-Ang1: recombinant human Ang1 (angiopoietin-1), R&D Systems (protein, UniProt Q15389 16-498, looked up)
Angiopoietin-1: HIGCSNQRRSPENSGRRYNRIQHGQCAYTFILPEHDGNCRESTTDQYNTNALQRDAPHVEPDFSSQKLQHLEHVMENYTQWLQKLENYIVENMKSEMAQIQQNAVQNHTATMLEIGTSLLSQTAEQTRKLTDVETQVLNQTSRLEIQLLENSLSTYKLEKQLLQQTNEILKIHEKNSLLEHKILEMEGKHKEELDTLKEEKENLQGLVTRQTYIIQELEKQLNRATTNNSVLQKQQLELMDTVHNLVNLCTKEGVLLKGGKREEEKPFRDCADVYQAGFNKSGIYTIYINNMPEPKKVFCNMDVNGGGWTVIQHREDGSLDFQRGWKEYKMGFGNPSGEYWLGNEFIFAITSQRQYMLRIELMDWEGNRAYSQYDRFHIGNEKQNYRLYLKGHTGTAGKQSSLILHGADFSTKDADNDNCMCKCALMLTGGWWFDACGPSNLNGMFYTAGQNHGKLNGIKWHYFKGPSYSLRSTTMMIRPLDF
Ninjurin1 expression [1]: reduced | Wnt7b expression [1]: reduced
